Source: the DeepSol protein solubility set

Assay: soluble on expression in E. coli; label from the status in PepcDB or PDB records
For “STDDKDVLRDVWFGRIPTCFTLYQDEITEREAEPYYLLLPRVSYLTLVTDKVKKHFQKVMRQEDVSEIWFEYEGTPLKWHYPIGLLFDLLASSSALPWNITVHFKSFPEKDLLHCPSKDAVEAHFMSCMKEADALKHKSQVINEMQKKDHKQLWMGLQNDRFDQFWAINRKLMEYPPEENGFRYIPFRIYQTTTERPFIQKLFRPVAADGQLHTLGDLLREVCPSAVAPEDGEKRSQVMIHGIEPMLETPLQWLSEHLSYPDNFLHISIVPQPTD”, the “soluble on expression in E. coli” value was “soluble”.
With “DYKDDDDKLAAAQYPVVNTNYGKIRGLRTPLPNEILGPVEQYLGVPYASPPTGERRFQPPEPPSSWTGIRNTTQFAAVCPQHLDERSLLHDMLPIWFTANLDTLMTYVQDQNEDCLYLNIYVPTEDDIHDQNSKKPVMVYIHGGSYMEGTGNMIDGSILASYGNVIVITINYRLGILGFLSTGDQAAKGNYGLLDQIQALRWIEENVGAFGGDPKRVTIFGSGAGASCVSLLTLSHYSEGLFQKAIIQSGTALSSWAVNYQPAKYTRILADKVGCNMLDTTDMVECLRNKNYKELIQQTITPATYHIAFGPVIDGDVIPDDPQILMEQGEFLNYDIMLGVNQGEGLKFVDGIVDNEDGVTPNDFDFSVSNFVDNLYGYPEGKDTLRETIKFMYTDWADKENPETRRKTLVALFTDHQWVAPAVATADLHAQYGSPTYFYAFYHHCQSEMKPSWADSAHGDEVPYVFGIPMIGPTELFSCNFSKNDVMLSAVVMTYWTNFAKTGDPNQPVPQDTKFIHTKPNRFEEVAWSRYNPKDQLYLHIGLKPRVRDHYRATKVAFWLELVPHLHNLNEIFQYVSTTTKVPPPDMT” the “soluble on expression in E. coli” value was “soluble”.
In the case of “MSLQMKNYQQTLKRMSDRSSGFLGVGVHKQKLGIGAIAIVVTDKDGEIVDCEMMSGVTVFSRFKPLTDFVGMSLNECKVLLQNESVDIALHGALKKIEEQMNRKENVTTEGHHHHHH”, the “soluble on expression in E. coli” value is reported as “not soluble”.
In the case of “MGSDKIHHHHHHMIEFAAITSVISKYAPQASQLIIKQAQKNEAVINILHELKLNPTQISDDIDTVYIYALIRYGVFKHEAILNLFREKEIKGCFWDAYSSNTPFKFVENAKKLLNQNSELKMQLINAKINFLAEIEEFGEAFIAVAKQTKSSKYQPYPDWNLDVYSKEFKALIFEKTRLFCGRDFVFKAIQKFFTTQAKGYFSIVGDAGMGKSAIAAKYVLAYKFPCYFNIFAEGRNKPEKFLASIRQQLIKRYSLQNADNTDLRTLLQKASEELKGQKLVIVVDALDEVEQEGNGNLLDLPQNLPNGVYFLLTRRLYNQETKRLTLSPDTPVYELDLTQGDYTALSQEDVKEYIELYLNNDSDLKNWINERHISEDSFTQEIAVKSENNFIYLRYLLPGISEGKYNDLNLKGLPQGLQDYYTTHWNRMGMDKESNEKKVKILYILVERGEPISINMITEILDEEEYEVKSVLNEWVEYVTPKVNVDEHKTYYSIYHRSFLEFLKSQDKLGKGRKLFREVNKSMANYMLKEMA”, the “soluble on expression in E. coli” value is reported as “not soluble”.
For “MGSDKIHHHHHHMKRRLGLKLYYRRRGHVKPSLLFVIQSHKGEFVKDRLEEYLNNLKIEKKPDSRESWDSYFMRIARMVSERSTCVHRKVGAVIVKDHRILATGYNQPPSKFPHCNEIGCIRDDLEINSGEHQEICYALHAEQNALMQAAKFGIAVNGATIYVTHKPCSICARLIVNAGIKRVVYEKDYPDPLTDFFFKFTGVESVRFVGDEM”, the “soluble on expression in E. coli” value was “not soluble”.
With “MHHHHHHSSGRENLYFQGMEELIPLVNRLQDAFSALGQSCLLELPQIAVVGGQSAGKSSVLENFVGRDFLPRGSGIVTRRPLVLQLITSKAEYAEFLHCKGKKFTDFDEVRLEIEAETDRVTGMNKGISSIPINLRVYSPHVLNLTLIDLPGITKVPVGDQPPDIEYQIREMIMQFITRENCLILAVTPANTDLANSDALKLAKEVDPQGLRTIGVITKLDLMDEGTDARDVLENKLLPLRRGYVGVVNRSQKDIDGKKDIKAAMLAERKFFLSHPAYRHIADRMGTPHLQKVLNQQLTNHIRDTLPNFRNKLQGQLLS” the “soluble on expression in E. coli” value was “soluble”.
In the case of “GPGSMCTAHSQSYLPLPPPTRTSTHTLTANVTQLRCRRRCVTPAIRTSRPPPAVAPPAALPAAHRPCICLLLHDLSPLPLLVLPPSLPLCAAPLHAAAHLPSHRTPSRPPMSAYHSSNPVEARRAECARLQAKYPGHVAVVVEAAEKAGSKVHFLALPRDATVAELEAAVRQALGTSAKKVTLAIEGSTPAVTATVGDIADACKRDDGFLYVSVRTEQAMGGIAGLCFASDSGGI”, the “soluble on expression in E. coli” value is reported as “not soluble”.
For “MTSSLSLHSSFVPSFADLSDRGLISKNSPTSVSISKVPTWEKKQISNRNSFKLNCVMEKSVDGQTHSTVNNTTDSLNTMNIKEEASVSTLLVNLDNKFDPFDAMSTPLYQTATFKQPSAIENGPYDYTRSGNPTRDALESLLAKLDKADRAFCFTSGMAALSAVTHLIKNGEEIVAGDDVYGGSDRLLSQVVPRSGVVVKRVNTTKLDEVAAAIGPQTKLVWLESPTNPRQQISDIRKISEMAHAQGALVLVDNSIMSPVLSRPLELGADIVMHSATKFIAGHSDVMAGVLAVKGEKLAKEVYFLQNSEGSGLAPFDCWLCLRGIKTMALRIEKQQENARKIAMYLSSHPRVKKVYYAGLPDHPGHHLHFSQAKGAGSVFSFITGSVALSKHLVETTKYFSIAVSFGSVKSLISMPCFMSHASIPAEVREARGLTEDLVRISAGIEDVDDLISDLDIAFKTFPL”, the “soluble on expression in E. coli” value was “soluble”.
In the case of “MGSDKIHHHHHHMAESKIAERAFYQPGASSIEGMPTTLQLFHNHPPIMLRPHWHAQVEVNYVMSGSVHYRMGDHDLTLNAGQMCIFWGGQPHQMDRSSDDSFYAGAHLPLVHFFRMRLPAAISSQLMDGATMVSGETDRADAENFGRWFRYVTSGDPAKAQHAVEELLLRVERMFLEPYSVISSADHGKRKEDDEGMAPSIGVVRMCDFIAANFLDDIDAADIARAASLHPKYAMNLFRKSTGMTLIKYLTLLRLSRAQAMLMTGKDNILQIAMESGFGSVSAFNKAFRQISGMSPSDFRRDMRAAAA”, the “soluble on expression in E. coli” value is reported as “not soluble”.
With “MSILHTVNKSPFERNSLESCLKFATEGASVLLFEDGIYAALAGTRVESQVTEALGKLKLYVLGPDLKARGFSDERVIPGISVVDYAGFVDLTTECDTVQAWL” the “soluble on expression in E. coli” value was “soluble”.
With “SMEVFQNHFEPGVYVCAKCGYELFSSRSKYAHSSPWPAFTETIHADSVAKRPEHNRSEALKVSCGKCGNGLGHEFLNDGPKPGQSRFSIFSSSLKFVPKGKETSA” the “soluble on expression in E. coli” value was “soluble”.
For “AIAASSDVLRQPDKNARPLALSGHVGFDSLPDQLVNKSTSQGFCFNILCIGETGIGKSTLMDTLFNTNFENFESSHFEPKVKLRAQTYDLQESNVRLKLTVVNTVGFGDQMNKQESYQHIVDYIDTQFESYLQEELKIKRSLHNYHDSRIHACLYFIAPSGHSLKSLDLVTMKKLDSKVNIIPVIAKADTISKSELHKFKIKIMSELVSNGVQIYQFPIDDETVAKINTAMNGHLPFAVVGSTEEVNIGNKMVKARQYPWGVVQVENENHCDFVKLREMLICVNMEDLREQTHTRHYELYRRCKLEEMGFKDTDPECKPVSLQQTYEAKRQEFLGELQRREEEMRQTFVQRVKEKEAELKDAERELQGKFEQLKRLHADEKSKLEEKRRSLEEEMSVFSKRKAATELLQAQSFNTSTNNKKDKDRKNSGFM”, the “soluble on expression in E. coli” value was “soluble”.
For “MGKNLQALAQLYKNALLNDVLPFWENHSLDSEGGYFTCLDRQGKVYDTDKFIWLQNRQVWTFSMLCNQLEKRENWLKIARNGAKFLAQHGRDDEGNWYFALTRGGEPLVQPYNIFSDCFAAMAFSQYALASGEEWAKDVAMQAYNNVLRRKDNPKGKYTKTYPGTRPMKALAVPMILANLTLEMEWLLPQETLENVLAATVQEVMGDFLDQEQGLMYENVAPDGSHIDCFEGRLINPGHGIEAMWFIMDIARRKNDSKTINQAVDVVLNILNFAWDNEYGGLYYFMDAAGHPPQQLEWDQKLWWVHLESLVALAMGYRLTGRDACWAWYQKMHDYSWQHFADPEYGEWFGYLNRRGEVLLNLKGGKWKGCFHVPRAMYLCWQQFEALS”, the “soluble on expression in E. coli” value was “soluble”.
For “MAHHHHHHMPTPRETVVAFLTQACCGTIVALHRMGGMEVMLYKEQLVVMLTRYFNSCWNSLLSGDDPYVVESFNMMKHDNPGCVMRYLFSVGTSVLPDEPPQEIARYSPEDTDDLEAARVTISETLQQLLAERIAVDPFQHSCEGLSLSAERTAWSEKGCPPQNFFEIS”, the “soluble on expression in E. coli” value was “soluble”.
With “MSLSIRYIVKTDVSETFEIIKAGQVGSNIVFSEIRTFDFGELATLACEKFYFRSSNRAALFVNINNFHGETEVTIISTGSSNGFFTGIDWGAAFDYMHSVVADLKRVAIREVKMEKQEEGHHHHHH” the “soluble on expression in E. coli” value was “soluble”.
